Reference: patent publication US6515103B1 (priority 1996, dated 2003)
Values joined by “and” are separate entries in the source; they are usually repeats but may differ in a detail not shown here. Equal values may be shown once. Read-outs that look alike come from different tables or passages of the source.

Experiments:
[1] = system: Frings audiogenic seizure-susceptible mice; conditions: for ED50 nmol / PI / P.I. / ED50: mouse, in vivo; for PI / P.I.: Frings audiogenic seizure-susceptible
[2] = system: Frings audiogenic seizure-susceptible mice; conditions: mouse, in vivo
NMDA receptor = assay: spermine-stimulated [3H]MK-801 binding assay, inhibition
[3] = Frings audiogenic seizure-susceptible

Row | Compound | IC50 (NMDA receptor) | also measured
1 | CC1(C)O[C@@H]2[C@@H](CO[C@@]3(COS(N)(=O)=O)OC(C)(C)O[C@@H]23)O1 [Topiramate, reference compound] | – | ED50 nmol [1]: >150 nmol; TD50 nmol [2]: no marked toxicity
2 | E^4 Con G (peptide) | > 20000 nM | –
3 | NC(=O)OCC(COC(N)=O)c1ccccc1 [Felbamate, reference compound] | – | protected (number/tested) printed in ED50 column ([1]; 30 min): 5/8 protected at 525 and 4/8 protected at 630; TD50 nmol [2]: no marked toxicity
4 | Nc1nnc(-c2cccc(Cl)c2Cl)c(N)n1 [Lamotrigine, reference compound] | – | PI [1]: >2.0; ED50 nmol [1]: 146 nmol; TD50 nmol [2, 3]: >290 nmol
5 | S^14 Con G (peptide) | 160 nM | –
6 | Sp^3 Con G (peptide) | 900 nM | –
7 | S^4 Con G (peptide) | > 20000 nM | –
8 | (A^7,10,14)1-15 Con G (peptide) | 34 nM | –
9 | (A^7,10)1-12 Con G (peptide) | 300 nM | –
10 | (A^7,10)1-13 Con G (peptide) | 253 nM | –
11 | CC(C(O)c1ccc(O)cc1)N1CCC(Cc2ccccc2)CC1 (stereo not shown) [Ifenprodil, reference compound] | – | P.I. [1]: <1; ED50 [1]: ˜25 nmols; TD50 [2, 3]: <25 nmols
12 | (A^7,10,14)1-16 Con G (peptide) | 37 nM | –
13 | A^7,10,14 Con G (peptide) | 88 nM | –
14 | (A^7,10,14)1-14 Con G (peptide) | 232 nM | –
15 | A^3 Con G (peptide) | 9100 nM | –
16 | S^3 Con G (peptide) | 3600 nM | –

Row | Compound | IC50 (NMDA receptor) | also measured
17 | Sp^14 Con G (peptide) | 1590 nM | –
18 | Y^3 Con G (peptide) | 960 nM | –
19 | A^14 Con G (peptide) | 160 nM | –
20 | S^10 Con G (peptide) | 1800 nM | –
21 | CCCC(CCC)C(=O)O [Valproic Acid, reference compound] | – | P.I. [1]: 1.1-2.2; PI [1]: 1.1-2.2; ED50 nmol [1]: 566 nmol; ED50 [1]: 5644 nmols; TD50 [2, 3]: >6000 <12,000
22 | C[C@]12N[C@H](Cc3ccccc31)c1ccccc12 [MK801, dizocilpine, reference compound] | – | P.I. [1]: 1.9; ED50 [1]: 0.641 nmols; TD50 [2, 3]: 1.227 nmols
23 | CCC1(c2ccccc2)C(=O)NC(=O)NC1=O [Phenobarbitol, reference compound] | – | PI [1]: 0.5; ED50 nmol [1]: 145 nmol; TD50 nmol [2, 3]: 68.8 nmol
24 | S^7 Con G (peptide) | 250 nM | –
25 | Sp^7 Con G (peptide) | 1200 nM | –
26 | Sp^10 Con G (peptide) | 560 nM | –
27 | A^4 Con G (peptide) | > 20000 nM | –
28 | Sp^4 Con G (peptide) | > 20000 nM | –
29 | E^7,10,14 Con G (peptide) | > 20000 nM | –
30 | A^10 Con G (peptide) | 1100 nM | –
31 | Y^7 Con G (peptide) | 960 nM | –
32 | A^7,Y^10 Con G (peptide) | 79 nM | –
